The values below come from patent publication US20210380703A1 (RIGEL PHARMACEUTICALS, published 2021).

Experiment [1] deals with T1, human ACVR2A (human, UniProt P27037 20-135, limits assumed).
T1 construct: also called activin receptor, type II A
Nature of the experiment: ELISA. The method, boiled down:
(§1)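 Monoclonal antibodies were first applied to human or mouse ACVR2A, alongside biotinylated goat anti-human kappa light chain (positive control) and human Fc (negative control); binding was then determined by ELISA.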
For orientation: In an ELISA, binding on a coated surface is turned into a signal by an enzyme label.

In experiment [2] the target is mouse ACVR2A (mouse, UniProt P27038 20-135, limits assumed). Put plainly: ELISA. The method, boiled down: as §1
Chain of mouse ACVR2A (P27038 20-135 limits assumed): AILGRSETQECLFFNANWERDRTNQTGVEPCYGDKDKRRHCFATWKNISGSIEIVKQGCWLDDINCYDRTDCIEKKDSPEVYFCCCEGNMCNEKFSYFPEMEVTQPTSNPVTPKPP
The target in experiment [3] is T2, biotinylated goat anti-human kappa light chain.
T2 construct: Positive control of the ELISA
Put plainly: ELISA, positive control. Summed up:
as §1
Further: test concentration or dose not given here.

T1 sequence (P27037 20-135 limits assumed): as the sequence (P27038 20-135 limits assumed) above, with R20K, I73V counted along it

B1: 369_H11 (antibody, V domains shown)
VH: EVQLLESGGGLVQPGGSLRLSCAASGFTFSDYGMNWVRQAPGKGLEWVSSINYNGGYTGYADSVKGRFTISRDNSKNTLYLQMNSLRAEDTAVYYCARSATWHDTHLDYWGQGTLVTVSS
VL: DIQMTQSPSSLSASVGDRVTITCRASQSILSYLNWYQQKPGKAPKLLIYAATSRHSGVPSRFSGSGSGTDFTLTISSLQPEDFATYYCQQSYDLPLTFGGGTKVEIK
notes: VH and VL only
B1: the optical density in experiment [1] worked out at 1.45 OD; in experiment [2] it was 1.64 OD; in experiment [3], 2.21 OD.

B2: 370_A08 (antibody, V domains shown)
VH: EVQLLESGGGLVQPGGSLRLSCAASGFTFDSYSMNWVRQAPGKGLEWVSSINYNSGYTGYADSVKGRFTISRDNSKNTLYLQMNSLRAEDTAVYYCARSATWHDTHLDYWGQGTLVTVSS
VL: DIQMTQSPSSLSASVGDRVTITCRASQSIVTYLNWYQQKPGKAPKLVIYAATSRASGVPSRFSGSGSGTDFTLTISSLQPEDFATYYCQQSYDLPLTFGGGTKVEIK
notes: VH and VL only
B2: the optical density in experiment [1] turned out to be 2.41 OD; in experiment [2] it was 2.33 OD; in experiment [3], 3.52 OD.

B3: 370_D07 (antibody, V domains shown)
VH: EVQLLESGGGLVQPGGSLRLSCAASGFTFSSYGMNWVRQAPGKGLEWVSNINYNSGYTGYADSVKGRFTISRDNSKNTLYLQMNSLRAEDTAVYYCARSATWHDTHLDYWGQGTLVTVSS
VL: DIQMTQSPSSLSASVGDRVTITCRASQSILSYVNWYQQKPGKAPKLVIYAATSLASGVPSRFSGSGSGTDFTLTISSLQPEDFATYYCQQSYESPLTFGGGTKVEIK
notes: VH and VL only
On to B3, for which the optical density in experiment [1] worked out at 2.81 OD; in experiment [2] it was 3.14 OD; in experiment [3], 3.38 OD.

B4: 373_F02 (antibody, V domains shown)
VH: EVQLLESGGGLVQPGGSLRLSCAASGFTFDSYSMNWVRQAPGKGLEWVSGINYNSGYKSYADSVKGRFTISRDNSKNTLYLQMNSLRAEDTAVYYCARSATWHDTHLDYWGQGTLVTVSS
VL: DIQMTQSPSSLSASVGDRVTITCRASQSILTYLNWYQQKPGKAPKLLIYAATSRASGVPSRFSGSGSGTDFTLTISSLQPEDFATYYCQQSYDTPLTFGGGTKVEIK
notes: VH and VL only
Consider B4, for which the values for the optical density in experiment [1], in experiment [2] and in experiment [3] were 3.62 OD, 3.6 OD and 3.15 OD, respectively.

B5: 373_H12 (antibody, V domains shown)
VH: EVQLLESGGGLVQPGGSLRLSCAASGFTFSDYSMNWVRQAPGKGLEWVSGINYNSGYKGYADSVKGRFTISRDNSKNTLYLQMNSLRAEDTAVYYCARSATWHDTHLDYWGQGTLVTVSS
VL: DIQMTQSPSSLSASVGDRVTITCRASQSILTYLNWYQQKPGKAPKLLIYAATSRASGVPSRFSGSGSGTDFTLTISSLQPEDFATYYCQQSYNSPLTFGGGTKVEIK
notes: VH and VL only
Turning to B5, the optical density in experiment [1] came to 3.06 OD; in experiment [2], 2.98 OD; in experiment [3] it was 3 OD.

B6: 374_A08 (antibody, V domains shown)
VH: EVQLLESGGGLVQPGGSLRLSCAASGFTFDSYSMNWVRQAPGKGLEWVSNINYNSGYTSYADSVKGRFTISRDNSKNTLYLQMNSLRAEDTAVYYCARSATWHDTHLDYWGQGTLVTVSS
VL: DIQMTQSPSSLSASVGDRVTITCRASQSIVTYLNWYQQKPGKAPKLLIYAATSLASGVPSRFSGSGSGTDFTLTISSLQPEDFATYYCQQSYDLPLTFGGGTKVEIK
notes: VH and VL only
Consider B6, for which the optical density in experiment [1] was determined as 3.59 OD; in experiment [2] it was 3.67 OD; in experiment [3], 2.94 OD.

B7: 374_C07 (antibody, V domains shown)
VH: EVQLLESGGGLVQPGGSLRLSCAASGFTFDSYSMNWVRQAPGKGLEWVSNINYNGGYTSYADSVKGRFTISRDNSKNTLYLQMNSLRAEDTAVYYCARSATWHDTHLDYWGQGTLVTVSS
VL: DIQMTQSPSSLSASVGDRVTITCRASQSIISYLNWYQQKPGKAPKLLIYAATSRASGVPSRFSGSGSGTDFTLTISSLQPEDFATYYCQQSDELPLTFGGGTKVEIK
notes: VH and VL only
On to B7, for which the values for the optical density in experiment [1], in experiment [2] and in experiment [3] were 3.65 OD, 3.7 OD and 3.22 OD, respectively.

B8: 373_D09 (antibody, V domains shown)
VH: EVQLLESGGGLVQPGGSLRLSCAASGFTFDSYSMNWVRQAPGKGLEWVSGINYNSGYTSYADSVKGRFTISRDNSKNTLYLQMNSLRAEDTAVYYCARSATWHDTHLDYWGQGTLVTVSS
VL: DIQMTQSPSSLSASVGDRVTITCRASQSILTYLNWYQQKPGKAPKLVIYAATSRHSGVPSRFSGSGSGTDFTLTISSLQPEDFATYYCQQSYENPLTFGGGTKVEIK
notes: VH and VL only
As for B8, the optical density in experiment [1] is 3.46 OD; in experiment [2], 3.5 OD; in experiment [3] it was 3.04 OD.

B9: 373_E08 (antibody, V domains shown)
VH: EVQLLESGGGLVQPGGSLRLSCAASGFTFDSYGMNWVRQAPGKGLEWVSGINYNSGYTSYADSVKGRFTISRDNSKNTLYLQMNSLRAEDTAVYYCARSATWHDTHLDYWGQGTLVTVSS
VL: DIQMTQSPSSLSASVGDRVTITCRASQSIVSYVNWYQQKPGKAPKLLIYAVTSRASGVPSRFSGSGSGTDFTLTISSLQPEDFATYYCQQSYESPLTFGGGTKVEIK
notes: VH and VL only
For the molecule B9, the values for the optical density in experiment [1], in experiment [2] and in experiment [3] were 2.97 OD, 3.23 OD and 3.2 OD, respectively.

B10: 373_A07 (antibody, V domains shown)
VH: EVQLLESGGGLVQPGGSLRLSCAASGFTFSSYSMNWVRQAPGKGLEWVSNINYNGGYTGYADSVKGRFTISRDNSKNTLYLQMNSLRAEDTAVYYCARSATWHDTHLDYWGQGTLVTVSS
VL: DIQMTQSPSSLSASVGDRVTITCRASQSILTYVNWYQQKPGKAPKLLIYAATSRASGVPSRFSGSGSGTDFTLTISSLQPEDFATYYCQQSDNLPLTFGGGTKVEIK
notes: VH and VL only
Take B10: the optical density came out at 3.52 OD in experiment [1], 3.59 OD in experiment [2] and 3.11 OD in experiment [3].

B11: 373_D02 (antibody, V domains shown)
VH: EVQLLESGGGLVQPGGSLRLSCAASGFTFSSYSMNWVRQAPGKGLEWVSNINYNSGYKGYADSVKGRFTISRDNSKNTLYLQMNSLRAEDTAVYYCARSATWHDTHLDYWGQGTLVTVSS
VL: DIQMTQSPSSLSASVGDRVTITCRASQSILSYLNWYQQKPGKAPKLLIYAATSLASGVPSRFSGSGSGTDFTLTISSLQPEDFATYYCQQSYDLPLTFGGGTKVEIK
notes: VH and VL only
On to B11, for which the optical density in experiment [1] was 3.73 OD; in experiment [2], 3.65 OD; in experiment [3], 3.19 OD.

B12: 371_F12 (antibody, V domains shown)
VH: EVQLLESGGGLVQPGGSLRLSCAASGFTFDSYSMNWVRQAPGKGLEWVSNINYNGGYKSYADSVKGRFTISRDNSKNTLYLQMNSLRAEDTAVYYCARSATWHDTHLDYWGQGTLVTVSS
VL: DIQMTQSPSSLSASVGDRVTITCRASQSIISYLNWYQQKPGKAPKLLIYAATSRASGVPSRFSGSGSGTDFTLTISSLQPEDFATYYCQQSNNLPLTFGGGTKVEIK
notes: VH and VL only
Consider B12, for which the values for the optical density in experiment [1], in experiment [2] and in experiment [3] were 2.47 OD, 2.3 OD and 3.62 OD, respectively.

B13: 371_B05 (antibody, V domains shown)
VH: EVQLLESGGGLVQPGGSLRLSCAASGFTFSSYSMNWVRQAPGKGLEWVSGINYNSGYTSYADSVKGRFTISRDNSKNTLYLQMNSLRAEDTAVYYCARSATWHDTHLDYWGQGTLVTVSS
VL: DIQMTQSPSSLSASVGDRVTITCRASQSILTYLNWYQQKPGKAPKLVIYAATSLASGVPSRFSGSGSGTDFTLTISSLQPEDFATYYCQQSDETPLTFGGGTKVEIK
notes: VH and VL only
Regarding B13, the figures for the optical density in experiment [1], in experiment [2] and in experiment [3] were 1.05 OD, 1.24 OD and 1.65 OD, respectively.

B14: 374_B11 (antibody, V domains shown)
VH: EVQLLESGGGLVQPGGSLRLSCAASGFTFSSYSMNWVRQAPGKGLEWVSGINYNSGYKSYADSVKGRFTISRDNSKNTLYLQMNSLRAEDTAVYYCARSATWHDTHLDYWGQGTLVTVSS
VL: DIQMTQSPSSLSASVGDRVTITCRASQSILTYVNWYQQKPGKAPKLVIYAATSRASGVPSRFSGSGSGTDFTLTISSLQPEDFATYYCQQSYDLPLTFGGGTKVEIK
notes: VH and VL only
As for B14, the optical density in experiment [1] was 3.69 OD; in experiment [2] it was 3.66 OD; in experiment [3], 3.17 OD.

B15: 370_A10 (antibody, V domains shown)
VH: EVQLLESGGGLVQPGGSLRLSCAASGFTFSDYSMNWVRQAPGKGLEWVSSINYNSGYKGYADSVKGRFTISRDNSKNTLYLQMNSLRAEDTAVYYCARSATWHDTHLDYWGQGTLVTVSS
VL: DIQMTQSPSSLSASVGDRVTITCRASQSILSYVNWYQQKPGKAPKLLIYAATSLASGVPSRFSGSGSGTDFTLTISSLQPEDFATYYCQQSYDTPLTFGGGTKVEIK
notes: VH and VL only
For B15, the optical density in experiment [1] was 2.58 OD; in experiment [2], 2.88 OD; in experiment [3] it was 3.47 OD.

B16: 372_H03 (antibody, V domains shown)
VH: EVQLLESGGGLVQPGGSLRLSCAASGFTFDSYGMNWVRQAPGKGLEWVSNINYNGGYKSYADSVKGRFTISRDNSKNTLYLQMNSLRAEDTAVYYCARSATWHDTHLDYWGQGTLVTVSS
VL: DIQMTQSPSSLSASVGDRVTITCRASQSIITYVNWYQQKPGKAPKLLIYAATSLASGVPSRFSGSGSGTDFTLTISSLQPEDFATYYCQQSYNLPLTFGGGTKVEIK
notes: VH and VL only
Take B16: the optical density in experiment [1] came out at 2.32 OD; in experiment [2], 2.7 OD; in experiment [3], 3.64 OD.

B17: 371_B10 (antibody, V domains shown)
VH: EVQLLESGGGLVQPGGSLRLSCAASGFTFDSYSMNWVRQAPGKGLEWVSNINYNGGYTGYADSVKGRFTISRDNSKNTLYLQMNSLRAEDTAVYYCARSATWHDTHLDYWGQGTLVTVSS
VL: DIQMTQSPSSLSASVGDRVTITCRASQSIVSYVNWYQQKPGKAPKLLIYAATSRASGVPSRFSGSGSGTDFTLTISSLQPEDFATYYCQQSYDLPLTFGGGTKVEIK
notes: VH and VL only
In the case of B17, the figures for the optical density in experiment [1], in experiment [2] and in experiment [3] were 3.31 OD, 3.36 OD and 3.44 OD, respectively.
